Source: patent US20110070235A1

Biological target: M2e
Assay: peptide ELISA, mAb 5 ug/mL

| Substance | ELISA A450 |
| --- | --- |
| TCN-031 (23K12) (antibody) | 0.43 |
| chimeric mouse V-region/human IgG1 kappa 14C2 antibody | 3.98 |
